Data on 3 molecules can be found in patent US20190175754A1 (UNIVERSITY OF CINCINNATI, published 2019).

In assay [1] the target is FLT3 on the surface of MONOMAC-6 cells (FLT3-overexpressing AML cell line) (human) (UniProt P36888). The assay is described as follows: flow cytometry of Cy5.5+ MONOMAC-6 cells, 50 nM Cy5.5-conjugated nanoparticles, 1 h; negative control conjugate (background uptake).
In assay [2] the target is T1, FLT3 on the surface of MONOMAC-6 cells (FLT3-overexpressing AML cell line) (human, UniProt P36888 27-993).
T1 construct: whole, on cells; Endogenous receptor on a cell line; also called FMS-like tyrosine kinase 3; FLT3 receptor
T1 sequence (looked up): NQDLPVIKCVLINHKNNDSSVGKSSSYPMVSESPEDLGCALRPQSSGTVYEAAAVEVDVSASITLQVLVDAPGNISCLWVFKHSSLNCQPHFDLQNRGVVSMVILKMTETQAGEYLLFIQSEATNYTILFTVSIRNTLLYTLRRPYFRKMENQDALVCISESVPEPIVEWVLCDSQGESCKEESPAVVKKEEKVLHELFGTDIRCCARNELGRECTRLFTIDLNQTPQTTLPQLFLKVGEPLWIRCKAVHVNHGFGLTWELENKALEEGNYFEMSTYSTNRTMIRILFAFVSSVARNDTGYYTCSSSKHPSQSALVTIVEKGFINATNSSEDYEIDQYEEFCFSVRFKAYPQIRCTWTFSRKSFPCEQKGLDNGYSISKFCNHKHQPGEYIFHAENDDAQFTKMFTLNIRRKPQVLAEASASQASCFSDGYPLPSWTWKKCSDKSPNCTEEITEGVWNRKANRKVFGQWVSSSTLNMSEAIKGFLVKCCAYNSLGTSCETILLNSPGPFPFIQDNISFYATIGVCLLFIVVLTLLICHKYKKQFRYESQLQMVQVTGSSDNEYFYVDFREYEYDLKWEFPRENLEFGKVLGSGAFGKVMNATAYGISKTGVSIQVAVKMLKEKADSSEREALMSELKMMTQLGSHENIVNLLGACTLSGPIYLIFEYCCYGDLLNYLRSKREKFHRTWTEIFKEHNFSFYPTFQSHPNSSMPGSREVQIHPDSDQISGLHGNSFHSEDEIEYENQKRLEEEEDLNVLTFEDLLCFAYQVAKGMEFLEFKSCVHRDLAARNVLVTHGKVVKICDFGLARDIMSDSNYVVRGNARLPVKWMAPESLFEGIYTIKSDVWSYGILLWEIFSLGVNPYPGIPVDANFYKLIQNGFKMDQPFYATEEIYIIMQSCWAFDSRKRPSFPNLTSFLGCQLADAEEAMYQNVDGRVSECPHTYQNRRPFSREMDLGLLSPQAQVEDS
The assay is described as follows: flow cytometry of Cy5.5+ MONOMAC-6 cells, 50 nM Cy5.5-conjugated nanoparticles, 1 h. The source says: FIG. 2(A) G7-NH₂ PAMAM dendrimers were first conjugated with the near-infrared dye Cy5.5 using an N-hydroxysuccinimide ester linker sulfo-SMCC. Next, the fluorescently-tagged G7-NH₂ (G7-Cy5.5) was conjugated to human recombinant FLT3L (i.e., the soluble FLT3L form with 155 amino acids; ProSpec-Tany Technogene Ltd., East Brunswick, N.J.) at a 1:2 ratio using the heterofunctional linker sulfosuccinimidyl 4-((N-maleimidomethyl) cyclohexane-1-carboxylate) (sulfo-SMCC), resulting in the G7-FLT3L conjugates. FIG. 2(B) MONOMAC-6 cells were treated with Cy5.5-conjugated G7-FLT3L or G7-H2B nanoparticles for 24 hrs at the indicated doses. The proportion of Cy5.5⁺ cells were detected through flow cytometry analysis. FIG. 2(C) MONOMAC-6 and U937 cells were treated with 50 nM Cy5.5-conjugated G7-FLT3L or G7-H2B nanoparticles for 1 hr. The proportion of Cy5.5⁺ cells were detected through flow cytometry analysis. FIG. 2(D) MONOMAC-6 cells transfected with MSCV-PIG-miR-150 (miR-150-PIG) or MSCV-PIG (PIG) were treated with 50 nM Cy5.5-conjugated G7-FLT3L or G7-H2B nanoparticles for 1 hr. The proportion of Cy5.5⁺ cells were detected through flow cytometry analysis. Each experiment was repeated independently for at least three times. Average levels of at least three replicates are shown. […]

The target of assay [3] is T1, FLT3 on the surface of MONOMAC-6 cells …. The assay is described as follows: flow cytometry uptake by FLT3-overexpressing AML cells, against control protein conjugated nanoparticles. The protocol: FIG. 2(B) MONOMAC-6 cells were treated with Cy5.5-conjugated G7-FLT3L or G7-H2B nanoparticles for 24 hrs at the indicated doses. The proportion of Cy5.5⁺ cells were detected through flow cytometry analysis. FIG. 2(C) MONOMAC-6 and U937 cells were treated with 50 nM Cy5.5-conjugated G7-FLT3L or G7-H2B nanoparticles for 1 hr. The proportion of Cy5.5⁺ cells were detected through flow cytometry analysis. FIG. 2(D) MONOMAC-6 cells transfected with MSCV-PIG-miR-150 (miR-150-PIG) or MSCV-PIG (PIG) were treated with 50 nM Cy5.5-conjugated G7-FLT3L or G7-H2B nanoparticles for 1 hr. The proportion of Cy5.5⁺ cells were detected through flow cytometry analysis. Each experiment was repeated independently for at least three times. Average levels of at least three replicates are shown. FIG. 2(E) Cell viability (left panel) and apoptosis (right panel) of MONOMAC-6 cells treated with PBS (Ctrl), 50 nM G7-FLT3L or G7-H2B nanoparticles for 48 hr. *, P<0.05; **, P<0.01. […]

Assay [4] has the same target. The assay is described as follows: flow cytometry of Cy5.5+ MONOMAC-6 cells after 24 h treatment with Cy5.5-conjugated nanoparticles, compared with G7-FLT3L.

For “G7-H2B dendrimers (Cy5.5-labelled G7 PAMAM dendrimer conjugated to histone H2B, negative control)”, the uptake ratio (proportion of Cy5.5+ cells) in assay [1] turned out to be 5.9%.

B1: G7-FLT3L dendrimers (Cy5.5-labelled G7 PAMAM dendrimer conjugated to human recombinant soluble FLT3L) (ligand, UniProt P49771 27-184, looked up)
chain: TQDCSFQHSPISSDFAVKIRELSDYLLQDYPVTVASNLQDEELCGGLWRLVLAQRWMERLKTVAGSKMQGLLERVNTEIHFVTKCAFQPPPSCLRFVQTNISRLLQETSEQLVALKPWITRQNFSRCLELQCQPDSSTLPPPWSPRPLEATAPTAPQP
modifications: conjugated through the sulfo-SMCC linker to a Cy5.5-labelled G7 PAMAM dendrimer (approximately 0.5-1 FLT3L molecules per dendrimer); attachment residue not stated
notes: extracellular domain; The protein is carried on a G7 PAMAM dendrimer labelled with Cy5.5; also called G7-FLT3L nanoparticles; G7-FLT3L conjugates
In the case of B1, the “uptake ratio (proportion of Cy5.5+ cells)” value in assay [2] came out at 23.6%. Also, the “fold specificity and efficiency in targeting and uptake against nanoparticles conjugated with control proteins” value in assay [3] is 4 times.

B2: G7-Flt3L dendrimers (Cy5.5-labelled G7 PAMAM dendrimer conjugated to the synthetic 74-amino acid mouse Flt3L peptide) (peptide)
peptide: SSNFKVKFRELTDHLLKDYPVTVAVNLQDEKHCKALWSLFLAQRWIEQLKTVAGSKMQTLLEDVNTEIHFVTSC
modifications: conjugated to a Cy5.5-labelled G7 PAMAM dendrimer; attachment residue not stated
notes: also called G7-Flt3L nanoparticles; engineered mouse Flt3L peptide
Regarding B2, in assay [4], the binding result is given as “binds”.
